According to patent publication US20090158455A1, “COMPOSITIONS AND METHODS FOR MODULATING LYSINE PRODUCTION” (priority 2005, published 2009):

Key:
[1] = system: N[C@@H](CCC(=O)O)C(=O)O; assay: purified protein, by the assay type; conditions: other: forward assay
[2] = system: N[C@@H](CCC[C@H](N)C(=O)O)C(=O)O; assay: purified protein, by the assay type; conditions: other: reverse assay
[3] = system: O=C(O)C1=N[C@H](C(=O)O)CCC1; assay: purified protein, by the assay type; conditions: other: forward assay
[4] = system: O=C(O)CCC(=O)C(=O)O; assay: purified protein, by the assay type; conditions: other: reverse assay
[5] = system: N[C@@H](CCC(=O)O)C(=O)O; assay: Quantitative forward and reverse assays of purified LL-DAP transaminases (Example III); format: biochemical, Desulfitobacterium hafniense DCB-2; conditions: other: forward assay
Protocol: (§1) This plasmid was transformed into E. coli BL21-CodonPlus®-RIPL for expression and purification of the recombinant protein.
(§2) For protein expression the E. coli strains were grown on LB at 37° C. to an OD600 nm of 0.5 and protein expression was then induced with 1 mM IPTG for 4 hr at 25° C. Cells were lysed by sonication in a solution of 50 mM sodium phosphate and 300 mM NaCl (pH 8.0). Metabolites in the extract were removed by buffer exchange using an Amicon Ultra 30,000 MWCO ultrafilter and sodium phosphate/NaCl buffer, and the concentrated soluble protein sample was used for measurement of enzyme activity as an initial assessment of enzyme function. When the recombinant protein was to be purified a larger cell culture was grown and lysed as described above, but the buffer exchange step was not carried out. […] The pure protein was then concentrated in an Amicon Ultra 30,000 MWCO ultrafilter, replacing the elution buffer with 100 mM HepesKOH, pH 7.6.

[6] = system: O=C(O)C1=N[C@H](C(=O)O)CCC1; assay: as above; format: biochemical, Desulfitobacterium hafniense DCB-2; conditions: other: forward assay
Protocol: as §1, §2

Work on “Methanothermobacter thermautotrophicus LL-DAP transaminase MTH52 (Methanothermobacter thermautotrophicus str. Delta H)” yielded a Km [1] of 3000 µM, a Km [2] of 30 µM and a Km [3] of 75 µM.
“Desulfitobacterium hafniense LL-DAP transaminase Dhaf_3890 (Desulfitobacterium hafniense DCB-2)” gave a Km [2] of 41 µM, a Km [4] of 300 µM and a Km [5] of 800 µM. The Km [6] was 70 µM.
With “Synechocystis sp. PCC 6803 LL-DAP transaminase sll0480 (Synechocystis sp. PCC 6803 substr. Kazusa)” the Km [1] was 1500 µM, the Km [2] was 17 µM and the Km [3] was 13 µM. For the same substance, the Km [4] was 310 µM.
Work on “Chlamydia trachomatis LL-DAP aminotransferase CT390 (ct390), His-Tag fusion, SEQ ID NO: 9 (Chlamydia trachomatis D/UW-3/CX)” yielded a Km ([1]; pH 7.5, 30° C., apparent Km) of 1000 µM, a Km ([2]; pH 7.5, 30° C., apparent Km) of 20 µM and a Km ([3]; pH 7.5, 30° C., apparent Km) of 200 µM. For the same substance, the Km ([4]; pH 7.5, 30° C., apparent Km, pH 7.5, 30.0 °C) was 650 µM.
